The text below walks through data of paper PMC9492657, “Metabolic pathway assembly using docking domains from type I cis-AT polyketide synthases” (Nature Communications, 2022).

Experiment [1] deals with D5 NDD-His-tag, biotinylated (N-terminal docking domain of DEBS3, 6-deoxyerythronolide B synthase) (UniProt Q03133). The experiment is described as follows: BLI; Octet RED96E; biotinylated D5 NDD (100 ug/mL in PBS) immobilised on a streptavidin (SA) biosensor; CDD in solution at variable concentrations in 1x kinetic buffer (PBS pH 7.4, 0.1% BSA, 0.05% Tween 20); 1:1 global model; three repeats. A general note: In BLI a coated tip is dipped into the sample, and binding shifts an interference pattern.

Experiment [2] concerns the target D3 NDD-His-tag (N-terminal docking domain of DEBS2, 6-deoxyerythronolide B synthase) (UniProt Q03132). Kind of experiment: BLI; GatorPrime; NDD-His-tag (100 ug/mL in PBS) immobilised on a Ni-NTA biosensor; CDD in solution at variable concentrations in 1x kinetic buffer (PBS pH 7.4, 0.1% BSA, 0.05% Tween 20); 1:1 global model; three repeats.
Experiment [3] addresses T1, R5 NDD-His-tag (N-terminal docking domain of RapB, rapamycin polyketide synthase) (Streptomyces rapamycinicus).
T1 chain: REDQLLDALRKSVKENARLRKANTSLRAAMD
Described as above. The note with it: both partners purified.

As to “Flag-tag-D4 CDD (C-terminal docking domain of DEBS2, 6-deoxyerythronolide B synthase) (from UniProt Q03132 1-3567) (domain or fragment)”, the Kd in experiment [1] was found to be 280 nM. Regarding “Flag-tag-D2 CDD (C-terminal docking domain of DEBS1, 6-deoxyerythronolide B synthase) (from UniProt Q03131 1-3491) (domain or fragment)”, the Kd in experiment [2] was found to be 14600 nM.

B1: Flag-tag-R4 CDD (C-terminal docking domain of RapA, rapamycin polyketide synthase) (domain or fragment)
chain: FAPAEPEPRLHEQELRRALAGISIDKFREAGVLDTLLRLAAMEGLAVPKPDSESDDEAFVDEMDADALIKHVLEEER
Regarding B1, in experiment [3], the affinity, expressed as Kd, was 340 ± 30 nM.

A word on the Kd: it is the free concentration of one partner at which half of the binding sites on the other are occupied at equilibrium, for simple one-to-one binding. A higher Kd goes with a looser complex.
